Test results as given in US20230365649A1 (published 2023).

T1: KRAS G13D (G13D RAS; the same in KRAS, HRAS and NRAS) peptide on HLA-DQA1*05:01 / HLA-DQB1*03:01 (human)
T1 peptide: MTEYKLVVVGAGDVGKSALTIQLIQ

T2: KRAS wild type (WT 25-mer) peptide on HLA-DQA1*05:01 / HLA-DQB1*03:01 (human)
T2 peptide: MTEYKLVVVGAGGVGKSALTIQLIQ


Legend:
[1] = target: T1, KRAS G13D (G13D RAS; the same in KRAS, …); test: activation reporter or marker
[2] = target: T2, KRAS wild type (WT 25-mer) peptide on …; test: activation reporter or marker
[3] = target: T1, KRAS G13D (G13D RAS; the same in KRAS, …); test: cytokine release
[4] = target: T2, KRAS wild type (WT 25-mer) peptide on …; test: cytokine release

Binder | binding result [1] | binding result [2] | binding result [3] | binding result [4]
4400 TCR-C (TCR, V domains shown) Valpha: QKITQTQPGMFVQEKEAVTLDCTYDTSDPSYGLFWYKQPSSGEMIFLIYQGSYDQQNATEGRYSLNFQKARKSANLVISASQLGDSAMYFCAMRERTGTASKLTFGTGTRLQVTL Vbeta: DVKVTQSSRYLVKRTGEKVFLECVQDMDHENMFWYRQDPGLGLRLIYFSYDVKMKEKGDIPEGYSVSREKKERFSLILESASTNQTSMYLCASSPGTENSPLHFGNGTRLTVT | recognises | no recognition |  | 
4400 TCR-20 (TCR, V domains shown) Valpha: QKITQTQPGMFVQEKEAVTLDCTYDTSDPSYGLFWYKQPSSGEMIFLIYQGSYDQQNATEGRYSLNFQKARKSANLVISASQLGDSAMYFCAMRERSGGSYIPTFGRGTSLIVHP Vbeta: DVKVTQSSRYLVKRTGEKVFLECVQDMDHENMFWYRQDPGLGLRLIYFSYDVKMKEKGDIPEGYSVSREKKERFSLILESASTNQTSMYLCASSLGTFNQPQHFGDGTRLSIL | recognises | no recognition |  | 
4400 TCR-A1 (TCR, V domains shown) Valpha: QKEVEQDPGPLSVPEGAIVSLNCTYSNSAFQYFMWYRQYSRKGPELLMYTYSSGNKEDGRFTAQVDKSSKYISLFIRDSQPSDSATYLCAMRANTDKLIFGTGTRLQVFP Vbeta: DVKVTQSSRYLVKRTGEKVFLECVQDMDHENMFWYRQDPGLGLRLIYFSYDVKMKEKGDIPEGYSVSREKKERFSLILESASTNQTSMYLCASRLGNTGELFFGEGSRLTVL |  |  | recognises | no recognition
4400 TCR-A2 (TCR, V domains shown) Valpha: QKEVEQDPGPLSVPEGAIVSLNCTYSNSAFQYFMWYRQYSRKGPELLMYTYSSGNKEDGRFTAQVDKSSKYISLFIRDSQPSDSATYLCAMRANTDKLIFGTGTRLQVFP Vbeta: DVKVTQSSRYLVKRTGEKVFLECVQDMDHENMFWYRQDPGLGLRLIYFSYDVKMKEKGDIPEGYSVSREKKERFSLILESASTNQTSMYLCASRQGNTGELFFGEGSRLTVL |  |  | recognises | no recognition
4400 TCR-N12 (TCR, V domains shown) Valpha: QKEVEQDPGPLSVPEGAIVSLNCTYSNSAFQYFMWYRQYSRKGPELLMYTYSSGNKEDGRFTAQVDKSSKYISLFIRDSQPSDSATYLCAMSYSGGGADGLTFGKGTHLIIQP Vbeta: DVKVTQSSRYLVKRTGEKVFLECVQDMDHENMFWYRQDPGLGLRLIYFSYDVKMKEKGDIPEGYSVSREKKERFSLILESASTNQTSMYLCASSTGNTGELFFGEGSRLTVL | recognises | no recognition |  | 
4400 TCR-J (TCR, V domains shown) Valpha: QKEVEQDPGPLSVPEGAIVSLNCTYSNSAFQYFMWYRQYSRKGPELLMYTYSSGNKEDGRFTAQVDKSSKYISLFIRDSQPSDSATYLCAMSYSGGGADGLTFGKGTHLIIQP Vbeta: DVKVTQSSRYLVKRTGEKVFLECVQDMDHENMFWYRQDPGLGLRLIYFSYDVKMKEKGDIPEGYSVSREKKERFSLILESASTNQTSMYLCASSQGNTGELFFGEGSRLTVL |  |  | recognises | no recognition
4400 TCR-N13 (TCR, V domains shown) Valpha: QKEVEQDPGPLSVPEGAIVSLNCTYSNSAFQYFMWYRQYSRKGPELLMYTYSSGNKEDGRFTAQVDKSSKYISLFIRDSQPSDSATYLCAMRANTDKLIFGTGTRLQVFP Vbeta: DVKVTQSSRYLVKRTGEKVFLECVQDMDHENMFWYRQDPGLGLRLIYFSYDVKMKEKGDIPEGYSVSREKKERFSLILESASTNQTSMYLCASRVGNTGELFFGEGSRLTVL | recognises | no recognition |  | 
4400 TCR-E (TCR, V domains shown) Valpha: DAKTTQPPSMDCAEGRAANLPCNHSTISGNEYVYWYRQIHSQGPQYIIHGLKNNETNEMASLIITEDRKSSTLILPHATLRDTAVYYCIVRVAKSGANNLFFGTGTRLTVIP Vbeta: EADIYQTPRYLVIGTGKKITLECSQTMGHDKMYWYQQDPGMELHLIHYSYGVNSTEKGDLSSESTVSRIRTEHFPLTLESARPSHTSQYLCASSGLTYTDTQYFGPGTRLTVL |  |  | recognises | no recognition

The next lines start with the values.

binding result [1] | binding result [2] | binding result [3] | binding result [4] | Binder
recognises | no recognition |  |  | 4400 TCR-N4 (TCR, V domains shown) Valpha: QKITQTQPGMFVQEKEAVTLDCTYDTSDPSYGLFWYKQPSSGEMIFLIYQGSYDQQNATEGRYSLNFQKARKSANLVISASQLGDSAMYFCAMRERSGTASKLTFGTGTRLQVTL Vbeta: DVKVTQSSRYLVKRTGEKVFLECVQDMDHENMFWYRQDPGLGLRLIYFSYDVKMKEKGDIPEGYSVSREKKERFSLILESASTNQTSMYLCASSLGVGSNYGYTFGSGTRLTVV
 |  | recognises | no recognition | 4400 TCR-N (TCR, V domains shown) Valpha: GEDVEQSLFLSVREGDSSVINCTYTDSSSTYLYWYKQEPGAGLQLLTYIFSNMDMKQDQRLTVLLNKKDKHLSLRIADTQTGDSAIYFCAPGGYNKLIFGAGTRLAVHP Vbeta: DVKVTQSSRYLVKRTGEKVFLECVQDMDHENMFWYRQDPGLGLRLIYFSYDVKMKEKGDIPEGYSVSREKKERFSLILESASTNQTSMYLCASRIGNTGELFFGEGSRLTVL
recognises | no recognition |  |  | 4400 TCR-J2 (TCR, V domains shown) Valpha: NSVTQMEGPVTLSEEAFLTINCTYTATGYPSLFWYVQYPGEGLQLLLKATKADDKGSNKGFEATYRKETTSFHLEKGSVQVSDSAVYFCALRLSGAGSYQLTFGKGTKLSVIP Vbeta: DVKVTQSSRYLVKRTGEKVFLECVQDMDHENMFWYRQDPGLGLRLIYFSYDVKMKEKGDIPEGYSVSREKKERFSLILESASTNQTSMYLCASSQGNTGELFFGEGSRLTVL
recognises | no recognition |  |  | 4400 TCR-A3 (TCR, V domains shown) Valpha: KTTQPNSMESNEEEPVHLPCNHSTISGTDYIHWYRQLPSQGPEYVIHGLTSNVNNRMASLAIAEDRKSSTLILHRATLRDAAVYYCILRAPSGTYKYIFGTGTRLKVLA Vbeta: DVKVTQSSRYLVKRTGEKVFLECVQDMDHENMFWYRQDPGLGLRLIYFSYDVKMKEKGDIPEGYSVSREKKERFSLILESASTNQTSMYLCASRQGNTGELFFGEGSRLTVL
